# B1: SEC22B (parent)
# chain: FPKKLAFAYLEDLHSEFDEQHGKK
# B2: SOAT1 (parent)
# chain: KSAAMLAVFAVSAVVHEYALAVCL
# Variants of: B1
# Assay: protein stability index of a GFP-peptide fusion (GPS, HEK-293T) (PSI 1-6); higher = more stable
# Settings: c terminus: a fixed tail appended
# 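Note: lentivirally expressed fusions sorted by FACS into six bins by GFP to DsRed ratio, PSI derived from sequencing read proportions per bin multiplied by bin number.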
row,Variant,protein stability index
1,FPAKLAFAYLEDLHSEFDEQHGKK,1.91
2,FPFKLAFAYLEDLHSEFDEQHGKK,1.91
3,FPPKLAFAYLEDLHSEFDEQHGKK,3.08
4,FPRKLAFAYLEDLHSEFDEQHGKK,2.42
5,FPWKLAFAYLEDLHSEFDEQHGKK,1.96
6,FPYKLAFAYLEDLHSEFDEQHGKK,1.74
7,FPSKLAFAYLEDLHSEFDEQHGKK,2.01
8,FPLKLAFAYLEDLHSEFDEQHGKK,2.79
9,FPTKLAFAYLEDLHSEFDEQHGKK,2.53
10,FPDKLAFAYLEDLHSEFDEQHGKK,2.25
11,FPCKLAFAYLEDLHSEFDEQHGKK,1.69
12,FPGKLAFAYLEDLHSEFDEQHGKK,2.29
13,FPVKLAFAYLEDLHSEFDEQHGKK,2.53
14,FPIKLAFAYLEDLHSEFDEQHGKK,2.17
15,FPNKLAFAYLEDLHSEFDEQHGKK,2.23
16,FPMKLAFAYLEDLHSEFDEQHGKK,2.2
17,FPHKLAFAYLEDLHSEFDEQHGKK,1.17
18,FPQKLAFAYLEDLHSEFDEQHGKK,2.4
19,FPEKLAFAYLEDLHSEFDEQHGKK,2.95
20,FKKKLAFAYLEDLHSEFDEQHGKK,2.55
21,FHKKLAFAYLEDLHSEFDEQHGKK,2.17
22,FSKKLAFAYLEDLHSEFDEQHGKK,3.06

row,Variant,protein stability index
1,FTKKLAFAYLEDLHSEFDEQHGKK,3.05
2,FYKKLAFAYLEDLHSEFDEQHGKK,2.16
3,FCKKLAFAYLEDLHSEFDEQHGKK,1.87
4,FDKKLAFAYLEDLHSEFDEQHGKK,4.59
5,FQKKLAFAYLEDLHSEFDEQHGKK,2.88
6,FNKKLAFAYLEDLHSEFDEQHGKK,3.44
7,FGKKLAFAYLEDLHSEFDEQHGKK,3.38
8,FVKKLAFAYLEDLHSEFDEQHGKK,2.29
9,FIKKLAFAYLEDLHSEFDEQHGKK,1.98
10,FFKKLAFAYLEDLHSEFDEQHGKK,2.62
11,FAKKLAFAYLEDLHSEFDEQHGKK,1.84
12,FMKKLAFAYLEDLHSEFDEQHGKK,3.04
13,FEKKLAFAYLEDLHSEFDEQHGKK,4.11
14,FLKKLAFAYLEDLHSEFDEQHGKK,1.68
15,FRKKLAFAYLEDLHSEFDEQHGKK,2.94
16,FWKKLAFAYLEDLHSEFDEQHGKK,1.95
17,FPKLLAFAYLEDLHSEFDEQHGKK,2.18
18,FPKDLAFAYLEDLHSEFDEQHGKK,3.31
19,FPKHLAFAYLEDLHSEFDEQHGKK,2.87
20,FPKALAFAYLEDLHSEFDEQHGKK,1.81
21,FPKGLAFAYLEDLHSEFDEQHGKK,2.72
22,FPKCLAFAYLEDLHSEFDEQHGKK,1.78

row,Variant,protein stability index
1,FPKILAFAYLEDLHSEFDEQHGKK,2.02
2,FPKELAFAYLEDLHSEFDEQHGKK,4.95
3,FPKFLAFAYLEDLHSEFDEQHGKK,1.97
4,EPKKLAFAYLEDLHSEFDEQHGKK,5.41
5,RPKKLAFAYLEDLHSEFDEQHGKK,3.98
6,TPKKLAFAYLEDLHSEFDEQHGKK,4.37
7,CPKKLAFAYLEDLHSEFDEQHGKK,4.01
8,YPKKLAFAYLEDLHSEFDEQHGKK,2.53
9,SPKKLAFAYLEDLHSEFDEQHGKK,4.52
10,MPKKLAFAYLEDLHSEFDEQHGKK,3.97
11,APKKLAFAYLEDLHSEFDEQHGKK,4.36
12,PPKKLAFAYLEDLHSEFDEQHGKK,4.6
13,VPKKLAFAYLEDLHSEFDEQHGKK,4.13
14,KPKKLAFAYLEDLHSEFDEQHGKK,4.8
15,IPKKLAFAYLEDLHSEFDEQHGKK,3.56
16,LPKKLAFAYLEDLHSEFDEQHGKK,3.79
17,HPKKLAFAYLEDLHSEFDEQHGKK,3.84
18,GPKKLAFAYLEDLHSEFDEQHGKK,4.02
19,WPKKLAFAYLEDLHSEFDEQHGKK,3.51
20,NPKKLAFAYLEDLHSEFDEQHGKK,4.88
21,QPKKLAFAYLEDLHSEFDEQHGKK,4.51
22,DPKKLAFAYLEDLHSEFDEQHGKK,4.93

# Variants of: B2
# Assay: as above
# Settings: c terminus: a fixed tail appended
row,Variant,protein stability index
1,KSAAMLAVFANSAVVHEYALAVCL,3.47
2,KSAAMLAVFAASAVVHEYALAVCL,2.8
3,KSAAMLAVFAQSAVVHEYALAVCL,3.03
4,KSAAMLAVFAHSAVVHEYALAVCL,1.4
5,KSAAMLAVFARSAVVHEYALAVCL,2.94
6,KSAAMLAVFAFSAVVHEYALAVCL,2.89
7,KSAAMLAVFAPSAVVHEYALAVCL,4.61
8,KSAAMLAVFACSAVVHEYALAVCL,2.8
9,KSAAMLAVFADSAVVHEYALAVCL,3.09
10,KSAAMLAVFAVSAVVHEYRLAVCL,3.46
11,KSAAMLAVFAVSAVVHEYMLAVCL,2.47
12,KSAAMLAVFAVSAVVHEYKLAVCL,2.39
13,KSAAMLAVFAVSAVVHEYQLAVCL,2.44
14,KSAAMLAVFAVSAVVHEYHLAVCL,2.88
15,KSAAMLAVFAVSAVVHEYLLAVCL,3.87
16,KSAAMLAVFAVSAVVHEYYLAVCL,2.56
17,KSAAMLAVFAVSAVVHCYALAVCL,2.5
18,KSAAMLAVFAVSAVVHFYALAVCL,2.73
19,KSAAMLAVFAVSAVVHGYALAVCL,1.39
20,KSAAMLAVFAVSAVVHNYALAVCL,2.23
21,KSAAMLAVFAVSAVVHTYALAVCL,3.21
22,KSAAMLAVFAVSAVVHQYALAVCL,3.61
23,KSAAMLAVPAVSAVVHEYALAVCL,1.92
24,KSAAMLAVHAVSAVVHEYALAVCL,3.12
25,KSAAMLAVWAVSAVVHEYALAVCL,3.01

row,Variant,protein stability index
1,KSAAMLAVQAVSAVVHEYALAVCL,3.43
2,KSAAMLAVVAVSAVVHEYALAVCL,1.47
3,KSAAMLAVAAVSAVVHEYALAVCL,1.73
4,KSAAMLAVDAVSAVVHEYALAVCL,4.42
5,KSAAMLAVRAVSAVVHEYALAVCL,2.15
6,KSAAMLAVSAVSAVVHEYALAVCL,2.3
7,KSAAMLAVMAVSAVVHEYALAVCL,2.35
8,KSAAMLAVFAVSAVHHEYALAVCL,3.15
9,KSAAMLAVFAVSAVRHEYALAVCL,1.83
10,KSAAMLAVFAVSAVGHEYALAVCL,2.69
11,KSAAMLAVFAVSAVQHEYALAVCL,2.06
12,KSAAMLAVFAVSAVVHEYALAVCD,3.9
13,KSAAMLAVFAVSAVVHEYALAVCA,3.7
14,KSAAMLAVFAVSAVVHEYALAVCT,5.26
15,KSAAMLAVFAVSAVVHEYALAVCN,2.87
16,KSAAMLAVFAVSAVVHEYALAVCP,2.62
17,KSAAMLAVFAVSAVVHEYALAVCY,1.98
18,KSAAMLAVFAVSAVVHEYALAVCI,2.33
19,KSAAMLAVFAVSAVVHEYALAVCK,4.06
20,KSAAMLAVFAVSAVVHEYALAVCF,2.33
21,KSAAMLATFAVSAVVHEYALAVCL,3.11
22,KSAAMLAYFAVSAVVHEYALAVCL,3.31
23,KSAAMLAWFAVSAVVHEYALAVCL,3.01
24,KSAAMLAVFAVSIVVHEYALAVCL,3.04
25,KSAAMLAVFAVSWVVHEYALAVCL,3.01

row,Variant,protein stability index
1,KSAAMLAVFAVSFVVHEYALAVCL,2.17
2,KSAAMLAVFAVSKVVHEYALAVCL,1.37
3,KSAAMLAVFAVSLVVHEYALAVCL,2.81
4,KSAAMLAVFAVSQVVHEYALAVCL,5.23
5,KSAAMLAVFAVSNVVHEYALAVCL,2.97
6,KSAAMLAVFAVSTVVHEYALAVCL,4.82
7,KSAAMLAVFAVSAVVHEMALAVCL,1.85
8,KSAAMLAVFAVSAVVHEDALAVCL,2.21
9,KSAAMLAVFAVSAVVHEPALAVCL,2.23
10,KSAAMLAVFAVSAVVHEWALAVCL,3.5
11,KSAAMLAVFAVSAVVHEFALAVCL,4.1
12,KSAAMLAVFAVSAVVHEQALAVCL,2.56
13,KSAAMLAVFAVSAVVHEYALLVCL,3
14,KSAAMLAVFAVSAVVHEYALSVCL,4.49
15,KSAAMLAVFAVSAVVHEYALIVCL,1.6
16,KSAAMLAVFAVSAVVHEYALMVCL,3.82
17,KSAAMLAVFAVSAVVHEYALDVCL,3.15
18,KSAAMLAVFAVSAVVHEYALFVCL,3.01
19,KSAAMLAVFAVSAVVHEYALNVCL,3.11
20,KSAAMLAVFAVSAVVHEYALEVCL,3.42
21,KSAAMLAVFAVSAVVHEYALAVSL,3.48
22,KSAAMLAVFAVSAVVHEYALAVIL,3.12
23,KSAAMLAVFAVSAVVHEYALAVPL,5.3
24,KSAAMLAVFAVSAVVHEYALAVAL,1.18
25,KSAAMLAVFAVSAVVHEYALAVVL,2.34

row,Variant,protein stability index
1,KSAAMLAVFAVSAVVHEYALAVDL,3.23
2,KSAAMLAVFAVSAVVHEYALAVQL,2.32
3,KSAAMLAVFAVSAVVHEYALAVKL,3.89
4,KSAAMLAVFAVSAVVHEYALAVHL,2.03
5,KSAAMLAVFVVSAVVHEYALAVCL,3.03
6,KSAAMLAVFEVSAVVHEYALAVCL,2.05
7,KSAAMLAVFGVSAVVHEYALAVCL,3.62
8,KSAAMLAVFPVSAVVHEYALAVCL,3.61
9,KSAAMLAVFHVSAVVHEYALAVCL,3.74
10,KSAAMLAVFTVSAVVHEYALAVCL,1.83
11,KSAAMLAVFQVSAVVHEYALAVCL,3.2
12,KSAAMLAVFSVSAVVHEYALAVCL,3.12
13,KSAAMLAVFAVSAVVTEYALAVCL,2.1
14,KSAAMLAVFAVSAVVDEYALAVCL,2.58
15,KSAAMLAVFAVSAVVSEYALAVCL,2.73
16,KSAAMLAVFAVSAVVLEYALAVCL,2.94
17,KSAAMLAVFAVSAVVPEYALAVCL,2.51
18,KSAAMLAVFAVSAVVKEYALAVCL,2.88
19,KSAAMLAVFAVSAVVHEYALAACL,3.06
20,KSAAMLAVFAVSAVVHEYALATCL,3.08
21,KSAAMLAVFAVSAVVHEYALACCL,3.03
22,KSAAMLAVFAVSAVVHEYALARCL,4.03
23,KSAAMLAVFAVSAVVHEYALAICL,4.34
24,KSAAMLAVFAVSAVVHEYALAHCL,2.82
25,KSAAMLAVFAVSAVVHEYASAVCL,2.62

row,Variant,protein stability index
1,KSAAMLAVFAVSAVVHEYAQAVCL,4.49
2,KSAAMLAVFAVSAVVHEYAKAVCL,2.58
3,KSAAMLAVFAVSAVVHEYACAVCL,2.93
4,KSAAMLAVFAVSAVVHEYANAVCL,4.2
5,KSAAMLAVFAVSAVVHEYAIAVCL,1.49
6,KSAAMLAVFAVSAVVHEYATAVCL,2.31
7,KSAAMLAVFAVSAVVHEYAWAVCL,3.92
8,KSAAMLAVFAVSAVVHEYAEAVCL,3.95
9,KSAAMLAVFAVPAVVHEYALAVCL,2.41
10,KSAAMLAVFAVWAVVHEYALAVCL,2.99
11,KSAAMLAVFAVNAVVHEYALAVCL,4.18
12,KSAAMLAVFAVQAVVHEYALAVCL,3.61
13,KSAAMLAVFAVTAVVHEYALAVCL,2.46
14,KSAAMLAVFAVAAVVHEYALAVCL,1.63
15,KSAAMLAVFAVIAVVHEYALAVCL,3.04
16,KSAAMLAVFAVRAVVHEYALAVCL,2.11
17,KSAAMLAVFAVSAWVHEYALAVCL,4
18,KSAAMLAVFAVSAHVHEYALAVCL,2.91
19,KSAAMLAVFAVSANVHEYALAVCL,2
20,KSAAMLAVFAVSALVHEYALAVCL,3.6
21,KSAAMLAVFAVSAFVHEYALAVCL,1.91
22,KSAAMLAVFAVSADVHEYALAVCL,3.41

# — the supplement of paper PMC10567573
